This note sets out measurements from US6635751B1, “Isolated nucleic acids encoding activated and suppressive forms of ATF6” (HSP Research Institute, Inc., priority 1998, dated 2003).

The experiment has as its system GRP78 promoter. Nature of the experiment: Co-transfection of pcDNA3.1 effector plasmid (full-length ATF6 or CREB-RP) with GRP78 promoter luciferase reporter in HeLa cells. Format: cell-based, human. As to the method:
100 ng of an effector plasmid carrying a full-length ATF6 cDNA or plasmid vector alone was cotransfected into HeLa cells with 1 μg of a reporter plasmid containing luciferase gene fused with intact or mutant GRP promoters. The mutant promoter constructs used correspond to those of FIG. 6. Closed bars and open bars indicated cells treated with or without 2 μg/ml tunicamycin (in the figure, referred to as “TM”) for 16 hours, respectively. Experiments were repeated four times.
An effector plasmid carrying a full-length CREB-RP gene was cotransfected into HeLa cells harboring a reporter plasmid in the same manner as in FIG. 14. Experiments were repeated four times. In the figure, TM indicates tunicamycin.
An entire cDNA was inserted into the HindIII-XhoI sites or BamHI-EcoRI sites immediately downstream of the CMV promoter of pcDNA3.1(+) vector (manufactured by Invitrogen) to construct an effector plasmid for expressing ATF6 or CREB-RP, respectively.
In order to examine whether or not ATF6 is involved in the transcriptional regulation of the GRP gene in mammalian cells, HeLa cells were co-transfected with an effector plasmid carrying a full-length ATF6 cDNA and a reporter plasmid resulting from ligation of the firefly luciferase gene to downstream of the intact GRP promoter or a mutant GRP promoter, and GRP promoter activity was evaluated from the luciferase activity.
Therefore, with these findings in mind, a test was carried out to determine whether or not CREB-RP overexpression affects the activity of the GRP promoter.
(In general: A reporter such as luciferase makes a cellular process visible.)

Setting [1] is: presence of TM (2 μg/ml, 16 hours).

B1: CREB-RP: full-length CREB-RP (SEQ ID NO: 34) expressed from pcDNA3.1(+) effector plasmid (protein, listed as Homo sapiens)
chain: MAELMLLSEIADPTRFFTDNLLSPEDWDSTLYSGLDEVAEEQTQLFRCPEQDVPFDGSSLDVGMDVSPSEPPWELLPIFPDLQVKSEPSSPCSSSSLSSESSRLSTEPSSEALGVGEVLHVKTESLAPPLCLLGDDPTSSFETVQINVIPTSDDSSDVQTKIEPVSPCSSVNSEASLLSADSSSQAFIGEEVLEVKTESLSPSGCLLWDVPAPSLGAVQISMGPSLDGSSGKALPTRKPPLQPKPVVLTTVPMPSRAVPPSTTVLLQSLVQPPPVSPVVLIQGAIRVQPEGPAPSLPRPERKSIVPAPMPGNSCPPEVDAKLLKRQQRMIKNRESACQSRRKKKEYLQGLEARLQAVLADNQQLRRENAALRRRLEALLAENSELKLGSGNRKVVCIMVFLLFIAFNFGPVSISEPPSAPISPRMNKGEPQPRRHLLGFSEQEPVQGVEPLQGSSQGPKEPQPSPTDQPSFSNLTAFPGGAKELLLRDLDQLFLSSDCRHFNRTESLRLADELSGWVQRHQRGRRKIPQRAQERQKSQPRKKSPPVKAVPIQPPGPPERDSVGQLQLYRHPDRSQPAFLDAIDRREDTFYVVSFRRGHLLLPAISHNKTSRPKMSLVMPAMAPNETLSGRGAPGDYEEMMQIECEVMDTRVIHIKTSTVPPSLRKQPSPTPGNATGGPLPVSAASQAHQASHQPLYLNHP
Consider B1, for which the “effect on expression from mutant GRP78 promoter lacking all three ERSE sequences” value is “did not affect”. Where the note is “absence of TM”, the “effect on reporter expression from intact GRP78 promoter” value (“effect on reporter expression” below) was “hardly affected”. The “effect on reporter expression” value under setting [1] is given as “markedly suppressed”.

B2: ATF6: full-length ATF6, 670 amino acids (SEQ ID NO: 32), bZIP transcription factor expressed from pcDNA3.1(+) effector plasmid (protein, listed as Homo sapiens)
chain: MGEPAGVAGTMESPFSPGLFHRLDEDWDSALFAELGYFTDTDELQLEAANETYENNFDNLDFDLDLMPWESDIWDINNQICTVKDIKAEPQPLSPASSSYSVSSPRSVDSYSSTQHVPEELDLSSSSQMSPLSLYGENSNSLSSPEPLKEDKPVTGSRNKTENGLTPKKKIQVNSKPSIQPKPLLLPAAPKTQTNSSVPAKTIIIQTVPTLMPLAKQQPIISLQPAPTKGQTVLLSQPTVVQLQAPGVLPSAQPVLAVAGGVTQLPNHVVNVVPAPSANSPVNGKLSVTKPVLQSTMRNVGSDIAVLRRQQRMIKNRESACQSRKKKKEYMLGLEARLKAALSENEQLKKENGTLKRQLDEVVSENQRLKVPSPKRRVVCVMIVLAFIILNYGPMSMLEQDSRRMNPSVSPANQRRHLLGFSAKEAQDTSDGIIQKNSYRYDHSVSNDKALMVLTEEPLLYIPPPPCQPLINTTESLRLNHELRGWVHRHEVERTKSRRMTNNQQKTRILQGALEQGSNSQLMAVQYTETTSSISRNSGSELQVYYASPRSYQDFFEAIRRRGDTFYVVSFRRDHLLLPATTHNKTTRPKMSIVLPAININENVINGQDYEVMMQIDCQVMDTRILHIKSSSVPPYLRDQQRNQTNTFFGSPPAATEATHVVSTIPESLQ
Regarding B2, the “effect on expression from mutant GRP78 promoter lacking all three ERSE sequences” value is listed as “not affected”. For the setting “absence of TM, 100 ng effector plasmid”, the “increase of luciferase expression from GRP78 promoter having intact ERSE sequences over control vector” value stood at 5 fold. Also, the “effect on reporter expression” value under setting [1] is “further increased”.
